B1: recombinant PfPFD4 (6x-His-PfPFD4) (natural protein)
chain: MGDIKQNKYDLGLDMTVDDQKKIGKFTNLHYKEPLYEHKIKMMKENIMNIDSSIDEVSLAFDSNDIMLNIGDCFFKFDLDYIEEHLEDRKSEELANLNEMELEYKTKLNEKQKLKTELYAKFGNRIDLN
notes: Prefoldin subunit 4 of P. falciparum 3D7, PF3D7_0904500; CDS amplified from Pf3D7 cDNA; Resolved at 17 kDa on SDS-PAGE; also called rPfPFD4; Prefoldin subunit 4; source: E. coli BL21 (λDE3), pET-28a(+), purified (Ni-NTA)
B2: recombinant PfPFD1 (6x-His-PfPFD1) (natural protein)
chain: MSNLYDILGKAVINKEKKDEFQNLILKSEGFIDDVLHEKLRERQKKRDEILQDLFDMEILIENLKLFVNMKDKSEVETLTSLGCDSYVYADIINKNKIFIQLGYEFYLEMTLEEAIKFLKKKINLYEEKLSYWNKQISHVKAHIQILMRAISNLT
notes: Prefoldin subunit 1 of P. falciparum 3D7, PF3D7_1107500; CDS amplified from Pf3D7 cDNA; Resolved at 20 kDa on SDS-PAGE; also called rPfPFD1; Prefoldin subunit 1; source: E. coli BL21 (λDE3), pET-28a(+), purified (Ni-NTA)
B3: recombinant PfPFD6 (6x-His-PfPFD6) (natural protein)
chain: MSQEKISEIIKDISALKTSCEKLNSQLDELITQKVENEMLLEEVKVLEDDSVLHKLVGLVLVKEEKSKCYDTISRRLQYITGEIENRKKVITNSEEKLRKLFSDLEAHAGQRKIPVPQA
notes: Prefoldin subunit 6 of P. falciparum 3D7, PF3D7_0512000; CDS amplified from Pf3D7 cDNA; Resolved at 16 kDa on SDS-PAGE; also called rPfPFD6; Prefoldin subunit 6; source: E. coli BL21 (λDE3), pET-28a(+), purified (Ni-NTA)
B4: recombinant PfPFD2 (6x-His-PfPFD2) (natural protein)
chain: METKSNVESPNISEPKESKLTYEQIEKDRVQLVSKIEELYQDVVEHKLVLEALENVPSDRRCYRMVGEVLVERTVGEIKPALMDHKNKVEQVIAECQKQLDQKNNEISNFIKSAKAGNLPGGIINGNPSEDTNNLNDKEKKSDGIIF
notes: Prefoldin subunit 2 of P. falciparum 3D7, PF3D7_1416900; CDS amplified from Pf3D7 cDNA; Resolved at 19 kDa on SDS-PAGE; also called rPfPFD2; Prefoldin subunit 2; source: E. coli BL21 (λDE3), pET-28a(+), purified (Ni-NTA)
B5: recombinant PfK13 (∼43 kDa) (natural protein)
chain: TMIDINVGGAIFETSRHTLTQQKDSFIEKLLSGRHHVTRDKQGRIFLDRDSELFRIILNFLRNPLTIPIPKDLSESEALLKEAEFYGIKFLPFPLVFCIGGFDGVEYLNSMELLDISQQCWRMCTPMSTKKAYFGSAVLNNFLYVFGGNNYDYKALFETEVYDRLRDVWYVSSNLNIPRRNNCGVTSNGRIYCIGGYDGSSIIPNVEAYDHRMKAWVEVAPLNTPRSSAMCVAFDNKIYVIGGTNGERLNSIEVYEEKMNKWEQFPYALLEARSSGAAFNYLNQIYVVGGIDNEHNILDSVEQYQPFNKRWQFLNGVPEKKMNFGAATLSDSYIITGGENGEVLNSCHFFSPDTNEWQLGPSLLVPRFGHSVLIANI
modifications: Construct limits are not printed. The ~43 kDa band does not fit the full-length 726 aa protein (~83 kDa). It fits the BTB-Kelch propeller region, taken by convention from the BTB domain start at …
B6: recombinant PfPFD3 (6x-His-PfPFD3) (natural protein)
chain: MSFDDLTDNTKSVRNIPGAKFIEHVTEFLQNKNEESILRLARELLLKYKFMEHAFVSRQINTQKKIPELKDALRVVQLLEKRKKIKEKKNLETFFPVEESLYARGIVQKTDKILLWLGANVMVEFPFDEATDLLNQHLERAINLSQEMDNELLWLHEQITTTEINISRIHNYIELKKGMMGKEVDKKTEQVN
modifications: RED-NHS dye label where it was the labelled protein in MST
notes: Prefoldin subunit 3 of P. falciparum 3D7, PF3D7_0718500; CDS amplified from Pf3D7 cDNA; Resolved at 24 kDa on SDS-PAGE; Unlabelled when titrated onto labelled PfPFD5; also called rPfPFD3; Prefoldin subunit 3; source: E. coli BL21 (λDE3), pET-28a(+), purified (Ni-NTA)

Experiment [1] concerns the target T1, PfPFD3 (Prefoldin subunit 3, PF3D7_0718500) (Plasmodium falciparum, UniProt Q8IBR6).
T1 construct: recombinant 6x-His-PfPFD3 (CDS in pET-28a(+)), RED-NHS labelled; with PfPFD1 (PF3D7_1107500)
Put plainly: competitive microscale thermophoresis: labelled PfPFD3-PfPFD1 complex titrated with BPD. It counts as binding.

Experiment [2] addresses B6. Kind of experiment: MST; Monolith NT.115; PfPFD3 or PfPFD5 labelled with RED-NHS dye, titrated with the other PfPFD subunits; 1× PBS pH 7.5, 0.01% tween-20; 10 min at room temperature; steady-state analysis. The following applies: both partners purified.
In experiment [3] the target is T2, recombinant PfPFD5 (6x-His-PfPFD5) (P. falciparum 3D7, UniProt Q8II82 1-248, RED-NHS dye label (labelled protein in MST)).
T2 construct: Prefoldin subunit 5 of P. falciparum 3D7, PF3D7_1128100; CDS amplified from Pf3D7 cDNA; Resolved at 30 kDa on SDS-PAGE; also called rPfPFD5; Prefoldin subunit 5; source: E. coli BL21 (λDE3), pET-28a(+), purified (Ni-NTA)
T2 sequence: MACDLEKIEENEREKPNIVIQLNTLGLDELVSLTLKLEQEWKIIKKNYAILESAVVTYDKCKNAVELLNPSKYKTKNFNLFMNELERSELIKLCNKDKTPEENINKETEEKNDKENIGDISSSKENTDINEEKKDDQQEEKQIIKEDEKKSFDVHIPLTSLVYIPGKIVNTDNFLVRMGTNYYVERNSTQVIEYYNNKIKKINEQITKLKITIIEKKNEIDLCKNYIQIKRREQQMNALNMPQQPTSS
The experiment is described as above. The following applies: both partners purified.

The target of experiment [4] is B3. Put plainly: SPR; AutoLab ESPRIT; recombinant PfK13 (20 μM) immobilised on a gold chip by amine coupling; PfPFD6 injected at 25 nM to 5 μM; PBS; two-state conformational change model, KD by the Integrated Rate Law equation. The following applies: both partners purified.

As for `OC(CCN1CCCCC1)(c1ccccc1)C1CC2C=CC1C2` (centres unmarked) [BPD, 1-{bicyclo[2.2.1]hept-5-en-2-yl}-1-phenyl-3-(piperidin-1-yl)propan-1-ol], binding in experiment [1] was characterised by a dissociation constant (Kd) of 1990 nM.

As to B1, the Kd in experiment [2] stood at 11300 nM; in experiment [3], 104 nM.

For B2, the Kd in experiment [2] amounted to 81.6 nM; in experiment [3], 851 nM.

B3: the Kd in experiment [2] amounted to 1880 nM; in experiment [3] it was 324 nM.

In the case of B4, the Kd in experiment [2] stood at 682 nM; in experiment [3], 42.4 nM.

As to B5, the Kd in experiment [4] worked out at 174 nM.

Take B6: in experiment [3], the Kd was 1340 nM.
